The values below come from patent US20180002381A1.

In test [1] the target is Coiled coil domain of UVRAG (228-276) (Mus musculus) (UniProt Q8K245). The experiment in a line: ITC. Background: Isothermal titration calorimetry measures the heat released or taken up as one component is titrated into another.
Test [2] deals with Coiled coil domain of Atg4L (Atg14L coiled coil) (Mus musculus (Mouse)) (UniProt Q8CDJ3). Kind of test: ITC.
Coiled coil domain of Atg4L (Atg14L coiled coil) (Mus musculus (Mouse)), sequence (Q8CDJ3 other isoform, or with tags, fused parts or gaps limits assumed): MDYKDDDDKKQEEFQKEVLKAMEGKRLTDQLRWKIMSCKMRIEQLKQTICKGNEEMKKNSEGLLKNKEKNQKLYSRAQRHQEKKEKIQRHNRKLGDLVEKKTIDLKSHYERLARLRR

Coiled coil domain of UVRAG (228-276) (Mus musculus), sequence (Q8K245 other isoform, or with tags, fused parts or gaps limits assumed): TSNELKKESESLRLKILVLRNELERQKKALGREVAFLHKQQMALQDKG

With “Beclin1 mutant L241E/L245E (from UniProt Q91XJ1 174-266)”, in test [1], the Kd (in general, the free concentration of one partner at which half of the binding sites on the other are occupied at equilibrium, for simple one-to-one binding) worked out at 10 nM and the fold stronger than wild-type Beclin1 stood at 20 times. In addition, the dissociation constant Kd in test [2] was found to be 500 nM.
